Source: patent publication US20260209352A1 (Adimab, published 2026)

Key:
[1] = target: Human CD3εδ-Fc (human) (UniProt P04234); assay: KD of scFv-Fc or IgG on human CD3εδ-Fc; instrument not given
[2] = target: T1, Human CD3 on Human CD3+ Jurkat cells (human, UniProt P07766 23-207); assay: cell binding hCD3, fold over background
T1 construct: whole, on cells; CD3 complex on cells; also called hCD3

[3] = target: T2, Cynomolgus CD3 on Cyno CD3+ Jurkat cells (cynomolgus, UniProt Q95LI5 22-198); assay: cell binding cCD3, fold over background
T2 construct: whole, on cells; CD3 on cells; also called cCD3
T2 sequence (Q95LI5 22-198): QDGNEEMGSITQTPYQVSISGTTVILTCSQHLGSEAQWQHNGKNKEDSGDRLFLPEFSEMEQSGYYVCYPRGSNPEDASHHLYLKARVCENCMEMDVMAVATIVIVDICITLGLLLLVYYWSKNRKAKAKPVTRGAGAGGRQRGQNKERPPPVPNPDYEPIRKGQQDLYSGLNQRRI

T1 sequence (P07766 23-207): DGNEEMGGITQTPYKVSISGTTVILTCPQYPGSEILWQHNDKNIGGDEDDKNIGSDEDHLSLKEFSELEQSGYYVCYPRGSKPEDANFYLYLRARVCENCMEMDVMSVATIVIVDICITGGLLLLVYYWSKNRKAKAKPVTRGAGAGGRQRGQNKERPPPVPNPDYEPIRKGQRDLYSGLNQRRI
Sequence of Human CD3εδ-Fc (human) (chain, as listed by the source mutant, chain 1 of 2): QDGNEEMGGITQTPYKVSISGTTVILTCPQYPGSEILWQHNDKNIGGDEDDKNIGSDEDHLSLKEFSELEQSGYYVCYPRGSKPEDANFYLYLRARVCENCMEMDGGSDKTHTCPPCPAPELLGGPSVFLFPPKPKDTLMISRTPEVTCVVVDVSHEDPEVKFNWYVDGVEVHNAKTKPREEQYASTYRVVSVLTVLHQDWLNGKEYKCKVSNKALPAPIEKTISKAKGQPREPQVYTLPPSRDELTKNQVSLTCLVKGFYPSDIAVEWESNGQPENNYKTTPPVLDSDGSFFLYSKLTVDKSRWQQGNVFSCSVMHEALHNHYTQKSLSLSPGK
Sequence of Human CD3εδ-Fc (human) (P04234 22-105, stated change not applied, chain 2 of 2): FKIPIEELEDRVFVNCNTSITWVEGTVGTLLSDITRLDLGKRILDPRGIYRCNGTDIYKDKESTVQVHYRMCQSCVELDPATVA

Binder	Kd [1] [pM]	Cell Binding hCD3 (FOB) [2] [FOB]	Cell Binding cCD3 (FOB) [3] [FOB]
ADI-46356 (antibody, V domains shown) VH: QVQLVQSGAEVKKPGASVKVSCKASGFNIKDYYMHWVRQAPGQRLEWIGWIDLENANTVYDAKFQGRVTITRDTSASTAYMELSSLRSEDTAVYYCARDAYGRYFYDVWGQGTLVTVSS VL: DIVMTQSPDSLAVSLGERATINCKSSQSLLNARTGKNYLAWYQQKPGQPPKLLIYWASTRESGVPDRFSGSGSGTDFTLTISSLQAEDVAVYYCVQSYFRRTFGGGTKVEIK	980	39	59
ADI-46361 (antibody, V domains shown, also called Ab45) VH: QVQLVQSGAEVKKPGASVKVSCKASGFNNKDYYMHWVRQAPGQRLEWIGWIDLENANTVYDAKFQGRVTITRDTSASTAYMELSSLRSEDTAVYYCARDAYGRYFYDVWGQGTLVTVSS VL: DIVMTQSPDSLAVSLGERATINCKSSQSLLNARTGKNYLAWYQQKPGQPPKLLIYWASTRESGVPDRFSGSGSGTDFTLTISSLQAEDVAVYYCTQSYFRRTFGGGTKVEIK	930	23	84
ADI-46371 (antibody, V domains shown, also called Ab35) VH: QAQLVQSGAEVKKPGASVKVSCKASGFNIKDYYMHWVRQAPGQRPEWIGWIDLENANTVYDAKFQGRVTITRDTSASTAYMELSSLRSEDTAAYYCARDAYGRYFYDVWGQGTLVTVSS VL: DIVMTQSPDSLAVSLGERATINCKSSQSLLNARTGKNYLAWYQQKPGQPPKLLIYWASTRESGVPDRFSGSGSGTDFTLTISSLQAEDVAVYYCVQSYFRRTFGGGTKVEIK	860	47	121
ADI-46358 (antibody, V domains shown, also called Ab31) VH: QVQLVQSGAEVKKPGASVKVSCKASGFNIKDYYMHWVRQAPGQRLEWIGWIDLENANTVYDAKFQGRVTITRDTSASTAYMELSNLRSEDTAVYYCARDAYGRYFYDVWGQGTLVTVSS VL: DIVMTQSPDSLAVSLGERATINCKSSQSLLNARTGKNYLAWYQQKPGQPPKLLIYWASTRESGVPDRFSGSGSGTDFTLTISSLQAEDVAVYYCTQSYFRRTFGGGTKVEIK	990	35	82
ADI-46367 (antibody, V domains shown, also called Ab32) VH: QVQLVQSGAEVKKPGASVKVSCKASGFNIKDYYMHWVRQAPGQRLEWIGWIDLENANTVYDAKFQGRVTITRDTSASIAYMELSSLRSEDTAVYYCARDAYGRYFYDVWGQGTLVTVSS VL: DIVMTQSPDSLAVSLGERATINCKSSQSLLNARTGKNYLAWYQQKPGQPPKLLIYWASTRESGVPDRFSGSGSGTDFTLTISSLQAEDVAVYYCAQSYFRRTFGGGTKVEIK	950	8	62
ADI-46381 (antibody, V domains shown, also called Ab43) VH: QVQLVQSGAEVKKPGASVKVSCKASGFNIKDYYMHWVRQAPGQRLEWIGWIDLENANTVYDTKFQGRVTITRDTSASTAYMELSSLRSEDTAVYYCARDAYGRYFYDVWGQGTLVTVSS VL: DIVMTQSPDSLAVSLGERATINCKTSQGLLNARTNKNYLAWYQQKPGQPPKLLIYWASTRESGVPDRFSGSGSGTDFTLTISSLQAEDVAVYYCVQSYFRRTFGGGTKVEIK	720	71	174
ADI-46365 (antibody, V domains shown, also called Ab49) VH: QVQLVQSGAEVKKPGASVKVSCKASGFNIKDYYMHWVRQAPGQRLEWIGWIDLENANTVYDAKFQGRVTITRDTSAGTAHMELSSLRSEDTAVYYCARDAYGRYFYDVWGQGTPVTVSS VL: DIVMTQSPDSLAVSLGERATINCKSSQSLLNARTGKNYLAWYQQKPGQPPKLLIYWASTRESGVPDRFSGSGSGTDFTLTISSLQAEDVAVYYCTQSYFRRTFGGGTKVEIK	1000	36	84
ADI-46369 (antibody, V domains shown, also called Ab33) VH: QAQLVQSGAEVKKPGASVKVSCKASGFNIKDYYMHWVRQAPGQRLEWIGWIDLENANTVYDTKFQGRVTITRDTSASTAYMELSSLRSEDTAVYYCARDAYGRYFYDVWGQGTLVTVSS VL: DIVMTQSPDSLAVSLGERATINCKSSQSLLNARTGKNYLAWYQQKPGQPPKLLIYWASTRESGVPDRFSGSGSGTDFTLTISSLQAEDVAVYYCVQSYFRRTFGGGTKVEIK	920	33	71
ADI-46360 (antibody, V domains shown, also called Ab44) VH: QVQLVQSGAEVKKPGASVKVSCKASGFNIKDYYMHWVRQAPGQRPEWIGWIDLENANTVYDAKFQGRVTITRDTSASTAYMELSSLRSEDAAAYYCARDAYGRYFYDVWGQGTLVTVSS VL: DIVMTQSPDSLAVSLGERATINCKSSQSLLNARTGKNYLAWYQQKPGQPPELLIYWASTRESGVPDRFSGSGSGTDFTLTISSLQAEDVAVYYCTQSYFRRTFGGGTKVEIK	970	40	106
ADI-46362 (antibody, V domains shown, also called Ab46) VH: QVQLVQSGAEVKKPGASVKVSCKASGFNIKDYYMHWVRQAPGQRPEWIGWIDLENANTVYDAKFQGRVTITRDTSASTAYMELSSLRSEDTAAYYCARDAYGRYFYDVWGQGTLVTVSS VL: DIVMTQSPDSLAVSLGERATINCKSSQSLLNARTGKNYLAWYQQKPGQPPKLLIYWASTRESGVPDRFSGSGSGTDFTLTISSLQAEDVAVYYCVQSYFRRTFGGGTKVEIK	800	7	95
ADI-46376 (antibody, V domains shown, also called Ab39) VH: QVQLVQSGAEVKKPGASVKVSCKASGFNIKDYYMHWVRQAPGQRLEWIGWIDLENANTVYDAKLQGRVTITRDTSASTAYMELSSLGSEDTAVYYCARDAYGRYFYDVWGQGTPVTVSS VL: DIVMTQSPDSLAVSLGERATINCKSSQSLLNARTGKNYLAWYQQKPGQPPKLLIYWASTRESGVPDRFSGSGSGTDFTLTISSLQAEDVAVYYCTQSYFRRTFGGGTKVEIK	1000	4	96
ADI-46379 (antibody, V domains shown, also called Ab41) VH: QVQLVQSGAEVKKPGASVKVSCKASGFNIKDYYMHWVRQAPGQRLEWIGWIDLENANTVYDAKFQGRVTITRDTSASAAYMELSSLRSEDTAVYYCARDAYGRYFYDVWGQGTLVTVSS VL: DIVMTQSPDSLAVSLGERATINCKSSQSLLNARTGKNYLAWYQQKPGQPPKLLIYWASARESGVPDRFSGSGSGTDFTLTISSLQAEDVAVYYCTQSYFRRTFGGGTKVEIK	1000	43	105
ADI-46372 (antibody, V domains shown, also called Ab36) VH: QVQLVQSGAEVKKPGASVKVSCKASGFNIKDYYMHWVRQAPGQRLEWIGWIDLENANTVYDAKFQGRVTITRDTSAGTAHMELSSLRSEDTAVYYCARDAYGRYFYDVWGQGTPVTVSS VL: DIVMTQSPDSLAVSLGERATINCKSSQSLLNARTGKNYLAWYQQKPGQPPKLLIYWASTRESGVPDRFSGSGSGTDFTLTISSLQAEDVAVYYCVQSYFRRTFGGGTKVEIK	1100	14	80
ADI-46363 (antibody, V domains shown, also called Ab47) VH: QVQLVQSGAEVKKPGASVKVSCKASGFNIKDYYMHWVRQAPGQRLEWIGWIDLENANTVYDAKFQGRVTITRDTSASTAYMELSSLRSEDTAVYYCARDAYGRYFYDVWGQGTLVTVSS VL: DIVMTQSPDSLAVSLGERATINCKSSQSLLNARTGKNYLAWYQQKPGQPPKLLIYWASTRESGVPDRFSGSGSGTDFTLTISSLQAEDVAVYYCTQSYFRRTFGGGTKVEIK	930	49	129
ADI-46370 (antibody, V domains shown, also called Ab34) VH: QVQLVQSGAEVKKPGASVKVSCKASGFNIKDYYMHWVRQAPGQRLEWIGWIDLENANTVYDHKFQGRVTITRDTSASTAYMELSSLRSEDTAVYYCARDAYGRYFYDVWGQGTLVTVSS VL: DIVMTQSPDSLAVSLGERATINCKSSQSLLNARTGKNYLAWYQQKPGQPPKLLIYWASTRESGVPDRFSGSGSGTDFTLTISSLQAEDVAVYYCVQSYFRRTFGGGTKVEIK	1000	40	46
ADI-46364 (antibody, V domains shown, also called Ab48) VH: QVQLVQSGAEVKKPGASVKVSCKASGFNIKDYYMHWVRQAPGQRLEWIGWIDLENANTVYDAKLQGRVTITRDTSASTAYMELSSLGSEDTAVYYCARDAYGRYFYDVWGQGTLVTVSS VL: DIVMTQSPDSLAVSLGERATINCKSSQSLLNARTGKNYLAWYQQKPGQPPKLLIYWASTRESGVPDRFSGSGSGTDFTLTISSLQAEDVAVYYCVQSYFRRTFGGGTKVEIK	970	33	63
ADI-46375 (antibody, V domains shown, also called Ab38) VH: QVQLVQSGAEVKKPGASVKVSCKASGFNIKDYYMHWVRQAPGQRLEWIGWIDLENANTVYDAKFQGRVTITRDTSASTAYMELSSLRSEDTAVYYCARDAYGRYFYDVWGQGTLVTVSS VL: DIVMTQSPDSLAVSLGERATINCKSSQSLLNARTRKNYLAWYQQKPGQPPKLLIYWASTRESGVPDRFSGSGSGTDFTLTISSLQAEDVAVYYCTQSYFRRTFGGGTKVEIK	860	48	40
ADI-46374 (antibody, V domains shown, also called Ab37) VH: QVQLVQSGAEVKKPGASVKVSCKASGFNIKDYYMHWVRQAPGQRLEWIGWIDLNNANTVYDAKFQGRVTITRDTSASTAYMELSSLRSEDTAVYYCARDAYGRYFYDVWGQGTLVTVSS VL: DIVMTQSPDSLAVSLGERATINCKSSQSLLNARTGKNYLAWYQQKPGQPPKLLIYWASTRESGVPDRFSGSGSGTDFTLTISSLQAEDVAVYYCVQSYFRRTFGGGTKVEIK	840	37	29
